Consider 1 molecule from PMC5262380, “Structural insights into the mechanism of the DEAH-box RNA helicase Prp43”.

Series [1] addresses ctPrp43-HT (Hook-Turn mutant) (Chaetomium thermophilum? (printed C. …, UniProt G0RY84 1-764, R180G;F181G)). The series can be described thus: fluorescence anisotropy; AMPPNP (100-fold excess), 3 mM MgCl2; Fluorescence anisotropy: 25 mM Tris pH 7.5, 150 mM KCl, 3 mM MgCl2, 25 C, 0.1 uM RNA, 0.01-50 uM protein, 100-fold excess AMPPNP. The settings on record: protein: recombinant; tags: GST-tag removed; label: 5' 6-carboxyfluorescein; single strand. In general terms: Fluorescence polarisation rises when a labelled molecule tumbles more slowly, as on binding a larger partner.

The next series deals with ctPrp43 (Chaetomium thermophilum? (printed C. …, UniProt G0RY84 1-764)). The series is described as above. The following applies: protein: recombinant; tags: GST-tag removed; label: 5' 6-carboxyfluorescein; single strand.
ctPrp43 (Chaetomium thermophilum?, sequence (G0RY84 entry or part of it): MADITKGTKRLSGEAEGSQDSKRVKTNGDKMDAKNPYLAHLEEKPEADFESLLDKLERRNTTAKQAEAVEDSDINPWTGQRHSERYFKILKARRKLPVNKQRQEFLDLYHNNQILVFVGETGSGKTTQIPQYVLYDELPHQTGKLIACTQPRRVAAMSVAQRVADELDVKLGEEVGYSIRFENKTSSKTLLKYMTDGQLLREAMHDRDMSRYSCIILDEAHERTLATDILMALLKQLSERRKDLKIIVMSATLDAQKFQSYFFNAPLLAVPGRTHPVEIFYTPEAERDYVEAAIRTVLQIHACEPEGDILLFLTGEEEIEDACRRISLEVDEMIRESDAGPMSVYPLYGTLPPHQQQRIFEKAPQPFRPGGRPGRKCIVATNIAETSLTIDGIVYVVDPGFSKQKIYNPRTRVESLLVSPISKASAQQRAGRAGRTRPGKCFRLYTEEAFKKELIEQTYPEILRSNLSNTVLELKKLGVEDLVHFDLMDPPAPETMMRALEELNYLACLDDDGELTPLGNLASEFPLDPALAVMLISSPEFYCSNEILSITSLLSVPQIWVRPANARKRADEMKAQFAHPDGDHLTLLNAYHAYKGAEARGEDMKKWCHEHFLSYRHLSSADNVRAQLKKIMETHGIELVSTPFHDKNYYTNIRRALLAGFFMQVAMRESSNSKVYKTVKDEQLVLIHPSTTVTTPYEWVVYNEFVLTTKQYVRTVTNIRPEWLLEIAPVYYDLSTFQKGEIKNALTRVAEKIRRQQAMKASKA

ctPrp43-HT (Hook-Turn mutant) (Chaetomium thermophilum?, sequence (G0RY84 entry or part of it R180G;F181G | mutant): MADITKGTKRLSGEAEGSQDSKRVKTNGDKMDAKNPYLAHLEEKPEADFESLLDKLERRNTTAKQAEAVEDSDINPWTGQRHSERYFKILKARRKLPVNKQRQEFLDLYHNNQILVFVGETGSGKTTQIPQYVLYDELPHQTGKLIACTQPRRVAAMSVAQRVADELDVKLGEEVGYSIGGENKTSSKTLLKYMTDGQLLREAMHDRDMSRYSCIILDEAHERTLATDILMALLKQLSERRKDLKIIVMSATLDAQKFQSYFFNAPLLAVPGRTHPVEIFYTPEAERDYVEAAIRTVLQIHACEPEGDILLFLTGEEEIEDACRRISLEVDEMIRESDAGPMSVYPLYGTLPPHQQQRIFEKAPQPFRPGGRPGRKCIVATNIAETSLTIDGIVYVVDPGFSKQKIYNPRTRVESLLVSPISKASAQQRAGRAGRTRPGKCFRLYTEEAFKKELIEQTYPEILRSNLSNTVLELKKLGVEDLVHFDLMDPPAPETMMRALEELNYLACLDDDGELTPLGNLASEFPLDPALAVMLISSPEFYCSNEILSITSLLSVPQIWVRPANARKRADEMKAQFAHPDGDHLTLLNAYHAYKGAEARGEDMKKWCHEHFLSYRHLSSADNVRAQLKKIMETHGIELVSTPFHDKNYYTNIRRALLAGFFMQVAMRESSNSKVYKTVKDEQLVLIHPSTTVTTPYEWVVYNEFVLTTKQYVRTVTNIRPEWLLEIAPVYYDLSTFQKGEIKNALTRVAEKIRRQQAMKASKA

As usually defined, the Kd is the concentration at which binding is half-saturated. On to UUUUUUUUUUUUUUUU (ssRNA) [5'-6FAM-U16-RNA], for which the Kd in series [1] amounted to 840 ± 50 nM; in the series with ctPrp43, 4.98 ± 0.57 µM.
